The values below are quoted from earlier work in publication PMC6066219 (PLoS ONE, 2018).

By IC50 is commonly meant the concentration at which inhibition is half-maximal.

Molecules are shown by their SMILES. Marks after values point to notes of the source that are not given here. Starred links: 1 amine or outer side, 2 acyl side, 3 side chain; linkers in the order of their positions; H or OH if unused. Positions of bridges follow the written chain, without caps; N, C: chain ends. Non-standard residues stand in square brackets, D forms with d. Residues, ends and D or L forms follow the SMILES beside them. Chains are numbered I, II in the order given. X1 = CC1=CC(=O)N(O)CCCC(NC(=O)CCN2C(=O)CC([*:3])C2=O)C(=O)OCCC(C)=CC(=O)N(O)CCCC(NC(=O)CCN2C(=O)CC([*:2])C2=O)C(=O)OCCC(C)=CC(=O)N(O)CCCC(NC(=O)CCN2C(=O)CC([*:1])C2=O)C(=O)OCC1; X2 = CC(=O)NC1CCCN(O)C(=O)C=C(C)CCOC(=O)C(NC(=O)CCN2C(=O)CC([*:1])C2=O)CCCN(O)C(=O)C=C(C)CCOC(=O)C(NC(=O)CCN2C(=O)CC([*:2])C2=O)CCCN(O)C(=O)C=C(C)CCOC1=O; Mpa = O=C(O)CCS

One series has as its target T1, CCK2 receptor (Homo sapiens, UniProt P32239).
T1 construct: expressed in transfected cells; host or cells: A431 human epidermoid carcinoma cells (A431-CCK2R), gift from Dr. L. Aloj
T1 sequence (P32239 1-447): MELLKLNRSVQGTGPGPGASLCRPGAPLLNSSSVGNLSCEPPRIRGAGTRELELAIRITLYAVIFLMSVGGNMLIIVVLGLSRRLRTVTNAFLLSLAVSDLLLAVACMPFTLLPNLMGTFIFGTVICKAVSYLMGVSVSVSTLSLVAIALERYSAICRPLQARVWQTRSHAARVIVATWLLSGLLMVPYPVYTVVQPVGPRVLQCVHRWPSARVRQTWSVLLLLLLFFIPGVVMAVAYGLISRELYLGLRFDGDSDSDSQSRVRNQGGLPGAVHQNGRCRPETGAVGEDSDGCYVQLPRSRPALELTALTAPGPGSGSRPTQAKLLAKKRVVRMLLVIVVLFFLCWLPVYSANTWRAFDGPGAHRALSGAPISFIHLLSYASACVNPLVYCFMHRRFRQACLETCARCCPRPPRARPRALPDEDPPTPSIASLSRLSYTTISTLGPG
On the set-up: method as in PMID 29849512. Particulars: natGa-labelled competitor; 125I-[Leu15]-Gastrin radioligand; whole A431-CCK2R cells; cited from earlier work.

The conditions of series [1]: cited from earlier work.
The subject of series [2] is A431-CCK2R/A431-mock tumour xenografted BALB/c nude mice. The conditions noted are these: mouse, in vivo; cited from earlier work.

As to `CSCC[C@H](NC(=O)[C@H](Cc1c[nH]c2ccccc12)NC(=O)CNC(=O)[C@H](Cc1ccc(O)cc1)NC(=O)[C@H](C)NC(=O)[C@@H](CCC(=O)O)NC(=O)CCSC1CC(=O)N(CCC(=O)NC2CCCN(O)C(=O)C=C(C)CCOC(=O)C(NC(=O)CCN3C(=O)CC(SCCC(=O)N[C@H](CCC(=O)O)C(=O)N[C@@H](C)C(=O)N[C@@H](Cc4ccc(O)cc4)C(=O)NCC(=O)N[C@@H](Cc4c[nH]c5ccccc45)C(=O)N[C@@H](CCSC)C(=O)N[C@@H](CC(=O)O)C(=O)N[C@@H](Cc4ccccc4)C(N)=O)C3=O)CCCN(O)C(=O)C=C(C)CCOC(=O)C(NC(C)=O)CCCN(O)C(=O)C=C(C)CCOC2=O)C1=O)C(=O)N[C@@H](CC(=O)O)C(=O)N[C@@H](Cc1ccccc1)C(N)=O` (stereo partly shown) [Dimer-Met] (I: [Mpa][dE]AYGWMDF-NH2 / II: [Mpa][dE]AYGWMDF-NH2; linker I:1-II:1 via X2), on CCK2 receptor, the half-inhibitory concentration (IC50) was 0.85 ± 0.15 nM. Moreover, the “Distribution coefficient logD (pH 7.4)” value in series [1] is on record as -2.38 ± 0.04. Also, in series [2], the “Ratio T/O tumour-to-A431-mock” value is 17.9 ± 6.1^c, the “Ratio T/O tumour-to-Blood” value was 16.0 ± 3.1^cd, the “Ratio T/O tumour-to-Bone” value is 11.6 ± 1.9^c and the “Ratio T/O tumour-to-Heart” value is given as 27.2 ± 4.8^cd. Also, in series [2], the “Ratio T/O tumour-to-Intestine” value was 19.9 ± 4.9^acd, the “Ratio T/O tumour-to-Kidneys” value is 0.30 ± 0.06^c, the “Ratio T/O tumour-to-Liver” value is reported as 11.1 ± 2.4^cd and the “Ratio T/O tumour-to-Lung” value is recorded as 14.4 ± 2.3^cd. Also, in series [2], the “Ratio T/O tumour-to-Muscle” value was 31.4 ± 13.2^c, the “Ratio T/O tumour-to-Pancreas” value was 17.9 ± 3.2^cd, the “Ratio T/O tumour-to-Spleen” value was 23.1 ± 4.2^cd and the “Ratio T/O tumour-to-Stomach” value was 4.0 ± 0.5^cd.

As for `CSCC[C@H](NC(=O)[C@H](Cc1c[nH]c2ccccc12)NC(=O)CNC(=O)[C@H](Cc1ccc(O)cc1)NC(=O)[C@H](C)NC(=O)[C@@H](CCC(=O)O)NC(=O)CCSC1CC(=O)N(CCC(=O)NC2CCCN(O)C(=O)C=C(C)CCOC(=O)C(NC(=O)CCN3C(=O)CC(SCCC(=O)N[C@H](CCC(=O)O)C(=O)N[C@@H](C)C(=O)N[C@@H](Cc4ccc(O)cc4)C(=O)NCC(=O)N[C@@H](Cc4c[nH]c5ccccc45)C(=O)N[C@@H](CCSC)C(=O)N[C@@H](CC(=O)O)C(=O)N[C@@H](Cc4ccccc4)C(N)=O)C3=O)CCCN(O)C(=O)C=C(C)CCOC(=O)C(NC(=O)CCN3C(=O)CC(SCCC(=O)N[C@H](CCC(=O)O)C(=O)N[C@@H](C)C(=O)N[C@@H](Cc4ccc(O)cc4)C(=O)NCC(=O)N[C@@H](Cc4c[nH]c5ccccc45)C(=O)N[C@@H](CCSC)C(=O)N[C@@H](CC(=O)O)C(=O)N[C@@H](Cc4ccccc4)C(N)=O)C3=O)CCCN(O)C(=O)C=C(C)CCOC2=O)C1=O)C(=O)N[C@@H](CC(=O)O)C(=O)N[C@@H](Cc1ccccc1)C(N)=O` (stereo partly shown) [Trimer-Met] (I: [Mpa][dE]AYGWMDF-NH2 / II: [Mpa][dE]AYGWMDF-NH2 / III: [Mpa][dE]AYGWMDF-NH2; linker I:1-II:1-III:1 via X1), on CCK2 receptor, the 50% inhibitory concentration (IC50) is 8.33 ± 2.2 nM. Also, in series [1], the “Distribution coefficient logD (pH 7.4)” value is -2.20 ± 0.07.
